Experimental findings from patent publication US11433139B2, “Peptide vaccines against interleukin-31” (Zoetis Services LLC, priority 2018, dated 2022) are described below.

Data set [1] is described as follows: Stability of cIL-31 following dialysis into PBS. In kind it is physicochemical. From the text:
The Interleukin 31 protein varies in amino acid sequence conservation among homologous species (FIGS. 1A and 1B) but is believed to have common structural architecture with other members of the type I cytokine family (Boulay et al. 2003, Immunity. August; 19(2):159-632003; Dillon et al. 2004 Nat Immunol. July; 5(7):752-60). This up-down bundle topology is significant to the mode of receptor recognition shared by these cytokines (Dillon et al. supra, Cornelissen et al. 2012 Eur J Cell Biol. June-July; 91(6-7):552-66). With variation in IL-31 protein sequence identities between different species, it is not possible to predict if antibodies raised against one species will cross-react with others given different epitope propensities and local amino acid compositions. As a consequence, multiple forms of IL-31 protein were considered for this work representing multiple species and expression systems. The canine IL-31 protein (cIL-31) was produced to use as an immunogen and a reagent to test affinity and potency of antibody hits. […] Protein concentration was determined using a bicinchoninic assay (BCA assay) with Bovine Serum Albumin (BSA) as a standard (ThermoFisher Scientific, Inc., Rockford, Ill.). […]

Data set [2] can be described thus: Pharmacokinetic profile of canine IL-31 in dogs. In kind it is in vivo, dog. Conditions: subcutaneous dose of 1.75 μg/kg, within the first hour. As for the experimental part:
A recent study was performed to determine serum IL-31 levels in cats with a presumptive diagnosis of allergic dermatitis (AD) from several different geographic regions in the USA. […] To understand the levels of canine IL-31 in a previous model development study, the pharmacokinetic profile of canine IL-31 was analyzed in dogs following administration of a subcutaneous dose of 1.75 μg/kg. […] Based on these findings it is reasonable to believe that an intravenous dose of 0.5 μg/kg feline IL-31 used in this feline model will result in a circulating amount that is far excessive to that observed in the naturally occurring disease state for dogs and cats.

A further data set concerns the target T1, canine IL-31 (Canis lupus familiaris, UniProt A0A8I3S3D1).
T1 construct: made in house; host or cells: CHO cells (CHROMOS ACE system)
T1 sequence (A0A8I3S3D1 24-159): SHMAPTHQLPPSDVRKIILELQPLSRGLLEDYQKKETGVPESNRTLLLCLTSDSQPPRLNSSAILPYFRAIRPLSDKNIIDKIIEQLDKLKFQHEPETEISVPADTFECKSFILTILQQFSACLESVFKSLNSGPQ
The data set can be described thus: Inhibition of canine IL-31 induced pSTAT3 signaling in canine DH-82 and feline FCWF4 cells. The data set is classed as cell-based. Conditions: canine IL-31; canine and feline cell types, cell type of the values not specified. How it is done:
To identify candidates with inhibitory activity, antibodies were assessed for their ability to affect IL-31-mediated STAT3 phosphorylation in either a canine or feline cell-based assay. STAT3 phosphorylation was determined in canine DH-82 (ATCC® CRL-10389™) or feline FCWF4 macrophage-like cells (ATCC CRL-2787). DH82 and FCWF4 cells were primed with canine interferon gamma (R&D Systems, Minneapolis, Minn.) at 10 ng/mL for 24 hours or feline interferon gamma (R&D Systems, Minneapolis, Minn.) at 125 ng/mL for 96 hours, respectively, to increase receptor expression. Both cell types were serum starved for 2 hours prior to IL-31 and mAb treatment. Using two independent methods, all candidate mAbs were evaluated for their ability to inhibit either 1 μg/mL canine or 0.2 μg/mL feline IL-31 induced STAT3 phosphorylation. […] To ensure complex formation, a one hour co-incubation of mAb and IL-31 cytokine prior to cell stimulation was completed. IL-31 cell stimulation was carried out for five minutes. STAT3 phosphorylation was measured using AlphaLISA SureFire ULTRA™ technology (Perkin Elmer, Waltham, Mass.). In the case where antibody concentration and purity are unknown, hybridoma supernatants were qualitatively measured for their ability to inhibit STAT3 phosphorylation following a 1 hour co-incubation with […] IL-31. The potency of individual monoclonal antibodies defined by their ability to inhibit IL-31 mediated STAT3 phosphorylation in these assays was considered the key selection criteria for further advancement of select antibodies. The term potency refers to the IC50 value calculated from these assays and is the concentration of the antibody where signaling induced by IL-31 is reduced to one half its maximal value.

Data set [3] deals with feline IL-31. Put plainly: Inhibition of feline IL-31 induced pSTAT3 signaling in canine DH-82 cells. In kind it is cell-based. Particulars: feline IL-31, pSTAT3, canine DH82 cells (FIG. 3). The method in brief:
(§1)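 DH-82 cells primed with canine IFN-γ 10 ng/mL for 24 h, FCWF4 with feline IFN-γ 125 ng/mL for 96 h, then serum-starved 2 h. mAb pre-incubated 1 h with 1 μg/mL canine or 0.2 μg/mL feline IL-31, cells stimulated 5 min; pSTAT3 by AlphaLISA SureFire, IC50 as half-maximal signalling reduction.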
Target sequence in this assay (as listed by the source): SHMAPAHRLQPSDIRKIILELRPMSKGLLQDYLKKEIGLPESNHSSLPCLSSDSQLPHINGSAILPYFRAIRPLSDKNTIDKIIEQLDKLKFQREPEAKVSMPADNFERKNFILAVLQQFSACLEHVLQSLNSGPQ

In data set [4] the target is feline IL-31. Put plainly: Affinity of anti-IL-31 antibodies by surface plasmon resonance (Biacore), feline IL-31 surface. Conditions: IL-31 conjugated to the surface (FIG. 2). The data set is classed as binding. The method, boiled down: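 IL-31 amine-coupled (NHS/EDC) at 5 μg/mL directly onto the SPR chip, quenched with ethanolamine; candidate mAbs flowed over as analyte. KD from 1:1 model fits; values below 1×10^−11 M are under the instrument's lower quantitation limit.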
Target sequence in this assay (as listed by the source): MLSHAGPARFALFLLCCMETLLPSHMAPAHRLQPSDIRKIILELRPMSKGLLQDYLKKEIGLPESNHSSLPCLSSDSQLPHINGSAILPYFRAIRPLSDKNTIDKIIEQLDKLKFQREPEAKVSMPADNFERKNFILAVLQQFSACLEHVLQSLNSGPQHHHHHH

Data set [5] deals with feline IL-31. The data set can be described thus: Inhibition of feline IL-31 induced pSTAT3 signaling in feline FCWF4 macrophage-like cells. The data set is classed as cell-based. Conditions: 0.2 μg/mL feline IL-31, pSTAT3, FCWF4 cells (FIG. 3). The method, boiled down: as §1
Data set [6] has as its system feline IL-31. Put plainly: Cat pruritus challenge model, subcutaneous antibody then IL-31 challenge. The data set is classed as in vivo. Particulars: cats, 4 mg/kg subcutaneously day 0; 0.5 μg/kg i.v. IL-31 challenge days 7, 21, 28. As for the experimental part:
The efficacy of the fully felinized anti feline IL-31 mAb ZTS-361 was assessed for its ability to neutralize pruritic behavior in an IL-31 induced in vivo cat model. […] As shown in this graph, the variance of pruritic behavior scored for both T01 and T02 groups prior to IL-31 challenge varied little with the number of pruritic events observed between 0 and 10 within the 30 minute observation period. This study differed from the preliminary feline challenge model described above in section 1.13 in that on day zero cats were dosed with 4 mg/kg ZTS-361 subcutaneously without combination with feline IL-31 to generate a pre-bound complex. This represents a more rigorous assessment of efficacy as antibody ZTS-361 will be in circulation for seven days prior to the first IL-31 challenge requiring the antibody to have sufficient exposure to bind and neutralize circulating IL-31.
For this study, pruritic behavior was assessed on days 7, 21, and 28 for 1 hour following a 0.5 μg/kg intravenous challenge of the IL-31 protein.
Target sequence in this assay (as listed by the source): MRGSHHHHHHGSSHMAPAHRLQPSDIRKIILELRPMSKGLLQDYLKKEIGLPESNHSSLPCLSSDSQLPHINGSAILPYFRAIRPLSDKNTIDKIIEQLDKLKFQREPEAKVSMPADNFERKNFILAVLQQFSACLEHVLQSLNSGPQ

B1: canine IL-31: recombinant canine IL-31 protein (SEQ ID NO: 155) produced in CHO cells (protein, listed as Canis familiaris)
chain: MLSHTGPSRFALFLLCSMETLLSSHMAPTHQLPPSDVRKIILELQPLSRGLLEDYQKKETGVPESNRTLLLCLTSDSQPPRLNSSAILPYFRAIRPLSDKNIIDKIIEQLDKLKFQHEPETEISVPADTFECKSFILTILQQFSACLESVFKSLNSGPQ
Regarding B1, the “stability, proteolysis” value in data set [1] (PBS, several days at 4° C.) was “no proteolysis was observed”. Also, the “stability, precipitation” value in data set [1] (following dialysis into PBS) is “No precipitation was observed”. The “peak plasma levels, maximum” value in data set [2] is given as “about 30 ng/ml”.

B2: ZTS-361: felinized anti IL-31 15H05 mAb, FEL_15H05_VH1 with Feline_HC_AlleleA_1, FEL-15H05-VL1_FW2 light chain (antibody, V domains shown)
VH: QVLLVQSGAEVRTPGASVKIFCKASGYSFTSYTIHWLRQAPAQGLEWMGNINPTSGYTENNQRFKDRLTLTADTSTNTAYMELSSLRSADTAMYYCARWGFKYDGEWSFDVWGAGTTVTVSS
VL: EIQMTQSPSSLSASPGDRVTITCRASQGISIWLSWYQQKPGNIPKVLINKASNLHIGVPSRFSGSGSGTDFTLTISSLEPEDAATYYCLQSQTYPLTFGGGTKLEIK
modifications: feline constant regions joined; Felinized variable heavy mAb sequence, from Mus musculus and Felis catus; Felinized variable light mAb sequence, from Mus musculus and Felis catus
Turning to B2, in the data set with canine IL-31, the “IC50 against canine IL-31” value is listed as “proportionally higher”. Also, the “potency (IC50) against feline IL-31 in canine DH82 cells” value with feline IL-31 [3] was “highly consistent with values derived from the chimeric and mouse form”. Further, the “affinity (KD) to feline IL-31” value on feline IL-31 [4] was “highly consistent with that of the mouse and chimeric form”. In the data set on feline IL-31 [5], the “potency (IC50) against feline IL-31 in feline FCWF4 cells” value was “highly consistent with values derived from the chimeric and mouse form”. Further, the “reduction in pruritus compared to vehicle placebo control” value with feline IL-31 [6] was “significant reduction in pruritus”.
